Data reported in patent publication US20240150417A1 (CELLEMEDY, published 2024).

Target: T1, human transferrin receptor (human, UniProt P02786 89-760, limits assumed)
T1 construct: also called TfR Human; transferrin receptor 1
Experiment: MST (Monolith NT.115), dye-labelled protein, receptor titrated
Procedure: First, 100 μl of dye that specifically binds to a hexa-His tag (RED-tris-NTA 2nd Generation Dye) was prepared at a concentration of 50 nM, along with 100 μl of the produced protein at a concentration of 200 nM, followed by mixing the same and incubating at room temperature for 30 minutes. The incubated product was centrifuged at 13000 rpm for 10 minutes at 4° C. by a centrifuge, thus to separate the supernatant and obtain a dye-labeled protein.
Then, 25 μl of 9.65 μM transferrin receptor was added to the 1st PCR tube; 10 μl of PBS-T (PBS+0.5% tween 20) buffer was added to 2nd to 16th PCR tubes; 10 μl of transferrin in the 1st PCR tube was transferred to the 2nd PCR tube; and 10 μl was again transferred from the 2nd PCR tube to the 3rd PCR tube. Likewise, this procedure was continued up to the 16th tube thus to perform ½ dilution in a sequential order so that each of the 2nd to 16th PCR tubes becomes 20 μl.
Thereafter, 10 μl of the dye-labeled protein was added to each PCR tube, and the reaction was performed at room temperature for 1 hour.

T1 sequence (P02786 89-760 limits assumed): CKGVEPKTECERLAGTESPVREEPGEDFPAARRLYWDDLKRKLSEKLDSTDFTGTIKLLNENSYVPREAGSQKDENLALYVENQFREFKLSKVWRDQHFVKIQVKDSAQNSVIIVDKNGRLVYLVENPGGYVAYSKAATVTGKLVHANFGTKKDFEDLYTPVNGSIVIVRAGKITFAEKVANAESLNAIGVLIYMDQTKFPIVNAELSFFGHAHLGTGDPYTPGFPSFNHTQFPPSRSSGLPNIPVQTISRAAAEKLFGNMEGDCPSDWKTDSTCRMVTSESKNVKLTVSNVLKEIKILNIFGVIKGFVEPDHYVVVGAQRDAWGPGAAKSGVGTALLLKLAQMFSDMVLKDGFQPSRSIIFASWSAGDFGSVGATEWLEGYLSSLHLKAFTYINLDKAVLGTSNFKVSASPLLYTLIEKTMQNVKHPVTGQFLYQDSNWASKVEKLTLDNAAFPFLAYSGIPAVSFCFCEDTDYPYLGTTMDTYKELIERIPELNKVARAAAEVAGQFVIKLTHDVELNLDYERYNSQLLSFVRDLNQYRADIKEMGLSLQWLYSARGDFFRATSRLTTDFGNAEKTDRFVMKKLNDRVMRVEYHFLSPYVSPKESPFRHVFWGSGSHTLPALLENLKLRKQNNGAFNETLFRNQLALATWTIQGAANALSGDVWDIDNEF

Row | Binder | Kd [µM]
1 | Ein-gp100-huHF (other, Self-assembled 24-mer; built from the site; also called gp100-huHF, TSA insertion site Ein (the middle of E helix)) MHHHHHHEFTTASTSQVRQNYHQDSEAAINRQINLELYASYVYLSMSYYFDRDDVALKNFAKYFLHQSHEEREHAEKLMKLQNQRGGRIFLQDIKKPDCDDWESGLNAMECALHLEKNVNQSLLELHKLATDKNDPHLCDFIETHYLNEQVKAIKELGDHVTNLRKMGAPESGLAEYLFDKHKVPRNQDWLTLGDSDNES | 0.00628
2 | Din-gp100-huHF (other, One monomer given; 24 monomers self-assemble. His tag carried RED-tris-NTA dye in MST., Self-assembled 24-mer; built from the site; also called gp100-huHF, TSA insertion site Din (the middle of D helix)) MHHHHHHEFTTASTSQVRQNYHQDSEAAINRQINLELYASYVYLSMSYYFDRDDVALKNFAKYFLHQSHEEREHAEKLMKLQNQRGGRIFLQDIKKPDCDDWESGLNAMECALHLEKNVNQSLLELHKLATDKNDPHLCDFIETHYLNEQVKAIKELGDHVTNLRKVPRNQDWLKMGAPESGLAEYLFDKHTLGDSDNES | 0.0293
